According to article doi:10.1101/2022.07.31.502239, “Structural basis for assembly and lipid-mediated gating of LRRC8A:C volume-regulated anion channels” (bioRxiv, 2022):

Target: the molecule itself
Assay: single molecule pulldown with stepwise photobleaching subunit counting; C-terminal EGFP-HA fusion expressed alone in LRRC8 knockout HEK293 cells, GDN extract used directly, immobilised on passivated coverslips with biotinylated anti-HA, TIRF imaging of EGFP bleaching steps

B1: HVCN1 with C-terminal EGFP and HA-tag (natural protein, UniProt Q96D96 1-273, looked up)
chain: MATWDEKAVTRRAKVAPAERMSKFLRHFTVVGDDYHAWNINYKKWENEEEEEEEEQPPPTPVSGEEGRAAAPDVAPAPGPAPRAPLDFRGMLRKLFSSHRFQVIIICLVVLDALLVLAELILDLKIIQPDKNNYAAMVFHYMSITILVFFMMEIIFKLFVFRLEFFHHKFEILDAVVVVVSFILDIVLLFQEHQFEALGLLILLRLWRVARIINGIIISVKTRSERQLLRLKQMNVQLAAKIQHLEFSCSEKEQEIERLNKLLRQHGLLGEVN
notes: HVCN1 (HV1) voltage-gated proton channel; Control for subunit counting; also called HV1-EGFP; HV1; source: LRRC8 knockout HEK293 cells, transfected, GDN detergent extract of membranes; not shown: EGFP, C-terminal, kept; HA, C-terminal, kept
- stoichiometry N: 2
